Measured values reported in patent publication US5616562A, “Methods and compositions using substance P to promote wound healing” (priority 1994, dated 1997).
One block for each molecule: values may come before it. Where a SMILES comes first, the peptide text is derived from it. [ ]: non-standard residue; d: D form.

Assays:
epithelial cells [1] = assay: SP analogs and fragment: stimulation of DNA synthesis / cell growth; assay type: cell-based
Procedure: Several SP analogs were also tested for their ability to stimulate DNA synthesis. An SP analog where norleucine is substituted for methionine at the C-terminus was tested (Nle-SP). Norleucine is a structural analog of methionine where the sulfur is replaced with a CH2 group.

corneal epithelium [2] = assay: Corneal re-epithelialization after debridement in rabbits given systemic capsaicin; assay type: in vivo, rabbit
Procedure: In order to investigate the effect of SP treatment on corneal epithelial cell growth, capsaicin (50 mg/kg) was injected subcutaneously into young rabbits on five consecutive days in order to deplete, lower, or block the release of SP in their corneas. Lidocain was injected subcutaneously into the injection site 10 minutes prior to the capsaicin injection. Three weeks after the last injection, the rabbits were anesthetized (ketamine/rompun), topical anesthetic applied to the cornea and the corneal epithelium of both eyes debrided to the limbal margin of clear cornea. The corneas were stained 2× daily with fluorescein and photographed using a cobalt filter to monitor re-epithelialization. Resultant photographs were projected onto a digitizing board and the surface area of ulceration determined. […] Clinically, the capsaicin treated rabbits differed from the control rabbits only in their impaired ability to re-epithelialize the denuded stroma.

corneal epithelium [3] = assay: Morphological examination of adherence of regenerated corneal epithelium; assay type: in vivo, rabbit; details: after healing of the cornea; masked specimens; systemic capsaicin, or topical enkephalinase in normal rabbits
From the text: For both capsaicin-treated rabbits and those treated with topical enkephalinase, regenerated epithelial layers could be easily rubbed off as a sheet of cells after healing of the cornea. This was not found in the control rabbits. Specimens from the various treatment groups were masked and morphologically examined to determine the nature of epithelial adherence. […] Thus, it appears that SP and other neuropeptides contribute to the attachment of epithelial cells during wound healing. Such contribution may take the form of elaboration of extracellular matrices (e.g., fibronectin) as well as development of cellular attachment mechanism, which activity would be in addition to their mitogenic activity in promoting cellular proliferation.

[4] = tested on: persistent non-septic corneal epithelial defects; assay: Open-label clinical trial of topical SP in canine patients with chronic non-septic corneal epithelial defects; assay type: in vivo, dog; details: 500 μ/ml SP topical, 8 times daily
From the text: This was a non-controlled open-label clinical trial conducted on canine patients seen in a specialty referral service for chronic, non-septic corneal epithelial defects. Criteria for inclusion included:
1. Absence of an identifiable underlying cause of the epithelial defect (lid abnormalities, decreased tear production etc.) on complete ophthalmic examination.
2. Persistence of the defect for at least 3 weeks.
3. Unresponsive to traditional therapy (topical broad spectrum antibiotics,some cases had received topical hyper-osmotic therapy, and 5 dogs had not healed after placement of a therapeutic soft contact bandage lens).
After obtaining informed consent from the owners, the dogs were taken into the hospital, an Elizabethan collar was placed (to keep the dog from rubbing its eye) and two drops of 500 μ/ml SP were instilled into the affected eye. The dogs were closely observed for any irritant effect of the drops. The dogs were then treated with one drop 8 times daily for duration of the trial.

corneal epithelium [5] = assay: Corneal re-epithelialization after debridement in non-capsaicin rabbits treated with topical enkephalinase; assay type: in vivo, rabbit
Procedure: To evaluate the effect of SP depletion using another model, the corneal epithelium was removed from non-capsaicin treated rabbits as described above. Enkephalinase (which breaks down SP) was administered 4× daily to one eye of each bilaterally wounded rabbit. The fellow eye received vehicle only 4× daily. […] FIG. 4 underestimates the time course of epithelial healing of both capsaicin treated rabbits and enkephalinase treated corneas for many of these corneas had not re-epithelialized at the termination of the experiments. In 12 rabbits, the enkephalinase treated eye always took longer to heal. In FIG. 5, typical plots for one rabbit (the other 11 rabbits gave essentially the same results) of wound area with time are presented. The solid line represents the enkephalinase-treated eye while the broken line represents the control without enkephalinase. In each case the enkephalinase treated eye and the vehicle treated eye appeared to heal at the same rate for the first 80 to 90 hours. […] The initial healing rate was probably due to migration of pre-existing cells onto the peripheral wound. After 80 to 90 hours synthesis of new cells is required in order to completely cover the wound. […]

epithelial cells [6] = assay: Effect of enkephalinase on the ability of SP and insulin to stimulate DNA synthesis; assay type: cell-based
Procedure: Substance P (SP) was tested for its ability to stimulate cell growth in epithelial cells from both cornea and lens that were arrested in the G1 /Go phase of the cell cycle in serum free media. […] See, FIG. 1 for corneal and FIG. 2 for lens epithelial cells. To test whether this effect was due to SP, 1 μg/ml of enkephalinase (an enzyme that cleaves SP between amino acid residues 6-7, 7-8, and 9-10) was added.
In the previous experiment, the enkephalinase was added to the cells at the same time as the SP.

Molecule: fragment of substance P including only amino acids 5-11: fragment of substance P including only amino acids 5-11 (GlnPhePheGlyLeuMet)
- promotion of cellular growth (epithelial cells [1]): active

Molecule: CC(C)C[C@H](NC(=O)[C@H](CC(C)C)NC(=O)[C@@H](Cc1c[nH]c2ccccc12)NC(=O)[C@H](Cc1ccccc1)NC(=O)[C@@H](Cc1c[nH]c2ccccc12)NC(=O)[C@H](CCC(N)=O)NC(=O)[C@H](CCC(N)=O)NC(=O)[C@@H]1CCCN1C(=O)[C@H](CCCCN)NC(=O)[C@@H]1CCCN1C(=O)[C@H](N)CCCNC(=N)N)C(N)=O [spantide] (H-[dR]PKPQQ[dW]F[dW]LL-NH2)
- promotion of cellular growth (epithelial cells [1]): stimulate epithelial cell growth

Molecule: COc1cc(CNC(=O)CCCC/C=C/C(C)C)ccc1O [capsaicin]
- time to re-epithelialize the denuded cornea (corneal epithelium [2]; capsaicin 50 mg/kg subcutaneously on five consecutive days, wounding three weeks later, vs 160 hours in non-capsaicin rabbits (FIG. 4)): 460 h
- clinical evidence of impaired lacrimation or other secondary phenomenon (corneal epithelium [2]; capsaicin treated rabbits): No clinical evidence
- adherence of regenerated corneal epithelium (corneal epithelium [3]): poorly adhered

- complications [4]: No complications were observed
Molecule: CSCC[C@H](NC(=O)[C@H](CC(C)C)NC(=O)CNC(=O)[C@H](Cc1ccccc1)NC(=O)[C@H](Cc1ccccc1)NC(=O)[C@H](CCC(N)=O)NC(=O)[C@H](CCC(N)=O)NC(=O)[C@@H]1CCCN1C(=O)[C@H](CCCCN)NC(=O)[C@@H]1CCCN1C(=O)[C@@H](N)CCCN=C(N)N)C(N)=O [SP, Substance P]

B1: enkephalinase: an enzyme that cleaves SP between amino acid residues 6-7, 7-8, and 9-10 (protein, UniProt P08473 2-750, looked up)
Neprilysin: GKSESQMDITDINTPKPKKKQRWTPLEISLSVLVLLLTIIAVTMIALYATYDDGICKSSDCIKSAARLIQNMDATTEPCTDFFKYACGGWLKRNVIPETSSRYGNFDILRDELEVVLKDVLQEPKTEDIVAVQKAKALYRSCINESAIDSRGGEPLLKLLPDIYGWPVATENWEQKYGASWTAEKAIAQLNSKYGKKVLINLFVGTDDKNSVNHVIHIDQPRLGLPSRDYYECTGIYKEACTAYVDFMISVARLIRQEERLPIDENQLALEMNKVMELEKEIANATAKPEDRNDPMLLYNKMTLAQIQNNFSLEINGKPFSWLNFTNEIMSTVNISITNEEDVVVYAPEYLTKLKPILTKYSARDLQNLMSWRFIMDLVSSLSRTYKESRNAFRKALYGTTSETATWRRCANYVNGNMENAVGRLYVEAAFAGESKHVVEDLIAQIREVFIQTLDDLTWMDAETKKRAEEKALAIKERIGYPDDIVSNDNKLNNEYLELNYKEDEYFENIIQNLKFSQSKQLKKLREKVDKDEWISGAAVVNAFYSSGRNQIVFPAGILQPPFFSAQQSNSLNYGGIGMVIGHEITHGFDDNGRNFNKDGDLVDWWTQQSASNFKEQSQCMVYQYGNFSWDLAGGQHLNGINTLGENIADNGGLGQAYRAYQNYIKKNGEEKLLPGLDLNHKQLFFLNFAQVWCGTYRPEYAVNSIKTDVHSPGNFRIIGTLQNSAEFSEAFHCRKNSYMNPEKKCRVW
- adherence of regenerated corneal epithelium (corneal epithelium [3]): poorly adhered
- healing rate (wound area with time) (corneal epithelium [5]; after the first 80 to 90 hours (FIG. 5)): slow dramatically
- re-epithelialization compared to fellow eye treated with vehicle (corneal epithelium [5]; enkephalinase 4× daily to one eye, 12 rabbits (FIG. 4)): markedly impair re-epithelialization
- effect of enkephalinase on SP-stimulated DNA synthesis (epithelial cells [6]; 1 μg/ml enkephalinase added at the same time as SP (FIG. 3)): destroyed all activity of SP by itself
- effect of enkephalinase on insulin-stimulated DNA synthesis (epithelial cells [6]; 1 μg/ml enkephalinase, insulin alone (FIG. 3)): did not affect the activity of insulin alone
- effect of enkephalinase pretreatment on the SP effect (epithelial cells [6]; cells pretreated 1 to 3 hours, enkephalinase then removed, especially in the presence of insulin): enhancement of the SP effect
- harmful effects on epithelial cells (epithelial cells [6]; enkephalinase by itself): no harmful effects
